B1: NBS (non-binding site, GAGACC) (dsDNA)
DNA 1: ACATTGGGCGAGAAAAGCTGATCCCCGAGACCCCGGGCTATCTCCCCCTCCTCCTCCGATCTG
DNA 2: CAGATCGGAGGAGGAGGGGGAGATAGCCCGGGGTCTCGGGGATCAGCTTTTCTCGCCCAATGT
B2: ACCTAC (AC-I) (dsDNA)
DNA 1: ACATTGGGCGAGAAAAGCTGATCCCCACCTACCCGGGCTATCTCCCCCTCCTCCTCCGATCTG
DNA 2: CAGATCGGAGGAGGAGGGGGAGATAGCCCGGGTAGGTGGGGATCAGCTTTTCTCGCCCAATGT
B3: ACCACC (dsDNA)
DNA 1: ACATTGGGCGAGAAAAGCTGATCCCCACCACCCCGGGCTATCTCCCCCTCCTCCTCCGATCTG
DNA 2: CAGATCGGAGGAGGAGGGGGAGATAGCCCGGGGTGGTGGGGATCAGCTTTTCTCGCCCAATGT
B4: ACCTGC (AC-I mutant, A5G) (dsDNA)
DNA 1: ACATTGGGCGAGAAAAGCTGATCCCCACCTGCCCGGGCTATCTCCCCCTCCTCCTCCGATCTG
DNA 2: CAGATCGGAGGAGGAGGGGGAGATAGCCCGGGCAGGTGGGGATCAGCTTTTCTCGCCCAATGT
B5: ACCAAA (dsDNA)
DNA 1: ACATTGGGCGAGAAAAGCTGATCCCCACCAAACCGGGCTATCTCCCCCTCCTCCTCCGATCTG
DNA 2: CAGATCGGAGGAGGAGGGGGAGATAGCCCGGTTTGGTGGGGATCAGCTTTTCTCGCCCAATGT
B6: ACCTAG (AC-I mutant, C6G) (dsDNA)
DNA 1: ACATTGGGCGAGAAAAGCTGATCCCCACCTAGCCGGGCTATCTCCCCCTCCTCCTCCGATCTG
DNA 2: CAGATCGGAGGAGGAGGGGGAGATAGCCCGGCTAGGTGGGGATCAGCTTTTCTCGCCCAATGT
B7: ACCAAT (dsDNA)
DNA 1: ACATTGGGCGAGAAAAGCTGATCCCCACCAATCCGGGCTATCTCCCCCTCCTCCTCCGATCTG
DNA 2: CAGATCGGAGGAGGAGGGGGAGATAGCCCGGATTGGTGGGGATCAGCTTTTCTCGCCCAATGT
B8: ACCACA (dsDNA)
DNA 1: ACATTGGGCGAGAAAAGCTGATCCCCACCACACCGGGCTATCTCCCCCTCCTCCTCCGATCTG
DNA 2: CAGATCGGAGGAGGAGGGGGAGATAGCCCGGTGTGGTGGGGATCAGCTTTTCTCGCCCAATGT
B9: ACCATA (dsDNA)
DNA 1: ACATTGGGCGAGAAAAGCTGATCCCCACCATACCGGGCTATCTCCCCCTCCTCCTCCGATCTG
DNA 2: CAGATCGGAGGAGGAGGGGGAGATAGCCCGGTATGGTGGGGATCAGCTTTTCTCGCCCAATGT
B10: ACCGAC (AC-I mutant, T4G) (dsDNA)
DNA 1: ACATTGGGCGAGAAAAGCTGATCCCCACCGACCCGGGCTATCTCCCCCTCCTCCTCCGATCTG
DNA 2: CAGATCGGAGGAGGAGGGGGAGATAGCCCGGGTCGGTGGGGATCAGCTTTTCTCGCCCAATGT
B11: ACCAAC (dsDNA)
DNA 1: ACATTGGGCGAGAAAAGCTGATCCCCACCAACCCGGGCTATCTCCCCCTCCTCCTCCGATCTG
DNA 2: CAGATCGGAGGAGGAGGGGGAGATAGCCCGGGTTGGTGGGGATCAGCTTTTCTCGCCCAATGT

T1 sequence (Q8VZQ2 whole entry, the tested form may be a part): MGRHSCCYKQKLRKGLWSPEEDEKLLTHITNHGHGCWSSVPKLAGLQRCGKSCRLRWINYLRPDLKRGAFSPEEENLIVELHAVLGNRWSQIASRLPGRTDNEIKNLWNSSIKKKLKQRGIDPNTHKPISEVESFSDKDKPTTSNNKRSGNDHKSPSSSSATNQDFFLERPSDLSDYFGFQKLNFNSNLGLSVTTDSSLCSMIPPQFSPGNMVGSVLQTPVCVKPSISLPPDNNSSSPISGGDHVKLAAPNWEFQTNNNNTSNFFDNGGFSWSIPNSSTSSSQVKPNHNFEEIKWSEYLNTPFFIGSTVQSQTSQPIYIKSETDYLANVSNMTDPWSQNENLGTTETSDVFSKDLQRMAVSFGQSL

One data set concerns the target T1, AtMYB61 (Arabidopsis thaliana, UniProt Q8VZQ2 1-366). The experiment in a line: EMSA; 5E-08 M protein; Buffer, salt, pH and temperature not stated (filter binding per Hall and Kranz; EMSA per earlier work); filter binding with 1065 nM probe (124.41 ng, 60 bp) in. As to conditions: protein: recombinant; tags: pET15b (NdeI/BamHI) fusion. Background: A gel shift assay detects complexes by their altered migration in electrophoresis.
For the molecule B1, the binding result was “no binding”.

A further data set deals with T1, AtMYB61. In words: filter binding; Buffer, salt, pH and temperature not stated (filter binding per Hall and Kranz; EMSA per earlier work); filter binding with 1065 nM probe (124.41 ng, 60 bp) in. Conditions: protein: recombinant; tags: pET15b (NdeI/BamHI) fusion.
On to B2, for which the Kd (in general, the equilibrium constant for the complex coming apart) is 9.12 nM.

Take B3: the Kd came to 690 nM. In the case of B4, the Kd came to 79.7 nM.

In the case of B5, the equilibrium dissociation constant (Kd) was 16.8 nM.

In the case of B6, the Kd stood at 56 nM. Same read-out and setting: the result for B7 reads 12.1 nM. In the case of B8, the Kd was determined as 80.8 nM. For the molecule B9, the Kd amounted to 18.3 nM.

B10: the Kd is 719 nM. Turning to B11, the Kd stood at 73.7 nM.

Values taken from publication PMC3669277, “Interactions between the R2R3-MYB Transcription Factor, AtMYB61, and Target DNA Binding Sites”.
